# From the DeepSol protein solubility set
# Test: soluble on expression in E. coli; label from the status in PepcDB or PDB records
row,Sequence,soluble on expression in E. coli
1,MSALLEVTNLHKDFVTRSGFLRKQIQHAVKPVSFTLEAGQTIGFIGQNGSGKSTLARMLAGMVAPTGGEIRVNGELLEHKDYSTRCKLIRMIFQDPNTSLNPRLQIGTILEGPLKRNTSMTPEARMRRVKDTLQRVGLLPEHAYFYPQMLATGQKQRVCLARALILQPSIIIADEALNGLDMAMRSQILNLFLELQEEMGVSFVYVSQHIGVIKHITDKIIVMHEGDVVESGETHEVLADPQHPITQRMIESHFTKAPTFKY,not soluble
2,MSAPSRTVLRELTATKYVANYTDEYQLETARAGCSALPPQPNINHDAIIEGHGEDVELVEDKNYRSLHRIDETPKLVDKKPSKAIIRDEAVKVLRDIQTMPIENLRLKRYDFFSQRWFNTTRESEKALVEHVLLHPNQRPHYFAAQCRMLSAEDISSLILTSLLAEPKETGQNVVRFAIQAKTAMPFQQLFAILEKLEMEIEGFQMTDSFVVATLIRSQSKSTTTRRLRTTNCREYGNLEPGLDSQGRLMASTASITCSIRGKRHVETRIVYNNNSSARDPFRRYRYIELEQTVKCMNRRVQIVEEPVEFHEFEVENDMVSLRNGMVLVDDLISFLETFELDEE,not soluble
3,MSAPVADAPAAEIVYKIISSDGVVSKMSEKAVQQSKTLSNLIENLGYTIENIETRDPIPVTNVNGKTMAKVAELCEKHKADAIPEDNMNVLKTLTIPEWDQKFLKIEDEALFDLILASNFLDIKGLMYYGCKTVSNMAKGKTTAELREIFGINTDEQDAAEETAQKAAAEVA,not soluble
4,MSAQTDPGYFFMPNHIILIGASEQPYSLGERVLSNLLSTPFQGKITPVNPRHHTIAGLPAYTSLNKIPGNADLIIAVTLPDSYDTLFKTCRKKQLRHIILIQDWDNLSAAELHTAETAIRKHHGNGLNITACTTAGIQLPSLGLNISTQDGYAAGHTAILTGNAAVSRQIDNILNKLRQGTSRHISLHPGISPITSADWLNRFGHSLHTKTAVLHHNPEEDQRKLFSAIRQFTRHTPLILHITCRTTETDRAVLHCLARHCNFLVSFNADDLEAALRAQLSDLPPLSRLDILSDTPAEWLHAHAPKNLTLHFPNLPHHIRNGHLTGTPTPSICHDIASRQLAHPDTQAVLTILSPSGHEDYKKTARALIRLSEQTAKPLLVSSPFSDGITHFDTPTQAIRTLSYRNTAAALKQAQLDIAPPQPCRLKTPQPQNIKKALAAANPSLLAEALHLPPYRHTTHNAVQFQFDSHPLYGDILTARCNGQTTAVLPPFTTLDSRHLARFAELDGTQTLDQFLHTLTVIPEYRQHILGITLNLNGGQYSSDFLLKTPETHDTPKRKNTGKAAQTLEHAAAKMQSAAAYLKHKNPTAAEFLRHTSEAAAELLGSKTETGAAVPNVLAPYPAAYPKTLSLRNNTTVTITPILPEDAEAKQQFVRSLGPEARYTRFMTHTNELPAATLARLCNPDYHCEAAWTAKDADSNIVAVVRHSRLNRNECEFGITLAEHMRGSGLAQKMMELIIQTAAQQGYRTMSADILKTNTPMIKLAEKSGFTLKESDTEKNLYRAYLNLAADKTTEKTNKNLRTDHKIT,not soluble
5,MSARKLFYLGPQGTFTHQAAVNAAQELARFEPQGFDLMPMDDVPQILDAAQHGDGWGIVAWENNVEGYVVPNLDALIDAKDLVGFARVGVNVEFDAYVAQGADPAEARIATAHPHGLAQCKRFIAEHRLSTQPATSNAAACRDLIPGEIAFGPAICGELYDITRIGTAIQDYQGAATDFLVLSPRAE,not soluble
6,MSATAGRVVRAGQHAVRTVAPIKSNNSAEARMSVLAAYKEFQRLTPKFWWDFGLHDMPLGVFRAVIKKQFTKNGHLTDVRVVDRLVGETHQHMKSIRYAFYNPDHVRNYLFAENVEAKPKDFLSKFLNGKE,not soluble
7,MSATINDLASFNKFFTENQHRFIRFAWTYTRDEVVAEDIVMESLMAYWENRDHMTPEINPAAYVLTVVKNKCLNYLRHLQLVNDVSDRVASHSEWELSNRIATLDACEPNALFASEVQDIIDRVISRLSATTARIFLLSRYDNKSHKEIAEIMGMTVKGVEFHISKATKELRVALKDYLVLFPFLCDFLSRN,not soluble
8,MSATTTLKEQVLTTLKREQANAVVMYLNYKKYHWLTYGPLFRDLHLLFEEQGSEVFAMIDELAERSLMLDGQPVADPADYLKVATVTPSSGQLTVKQMIEEAIANHELIITEMHQDAEIATEAGDIGTADLYTRLVQTHQKHRWFLKEFLAKGDGLVS,soluble
9,MSAVSYSMHRTTTTTSSSSHGGVSAGHAAEEFVASAEREKQEMQQLNSRLEVYISRVRQLEDRNKELVIELDTLRGSLGNDIGQIKFKFNDSLVKVRREISEAHSGTIGVEVKVDRLRDDLNDYRHRYEEARREVEREKTTWGGAISQAQAELDTNKSRYAAILDEEKRLYAEQDQLYLQLAAAKDELDAAIVDRRRLQAEEDDLKIELEFLGRIHSQEITELRTLLAQAPADTREFFKNELALAIREIKAEYDKIIQTTRVDLETIFQSKISAVESSIVSKNEAAVFRQEEIRKMNESITTLRAKLSELEARNSALEREANTLQIQLGEDQRAYESELHKRDNALRFMREDCQTLIAELQALLNTKQTLDTEIAIYRKLVESEEGRFTHVGQGVVVAQQETTRLVPVEQDHWDSGEVQTRSSFKRHAKGNVSIVECDPQGKYIILENTSGSVAEDVSNFEIRRVIDGVQAFVFRLPSHLVIQQHGHLKIYGRNSGGINSPPDSIVMESHPSWGQGGQVETFLYNSHGIEKASHIQTTVASSR,not soluble
10,MSCFVTVGSTLFEDLINQVLCEASLENLKKIGVKKIRLQIGKGNFNQDVIDRVFGETSGDEGSVKCDGLDIDYYRYKPSLSEDMAEALIVIGHGGAGTCLEVLALHLPFITVTNDKLMDNHQAELAVQLSDEGYLLQCTPSTLPETILKENLFSLRQFAAPSKKFVAEHIKQLVGIKNH,not soluble
11,MSCTTDKLIQKYDALVRKTTEHKFAKELCAGTLKDRSLYIYLSQDLQFFETSLRLICKTTSLAPTTHALITLAKKIGFFSNDENSYFHDCLELLAPSLTKEERDNFDNKAIPGVDAYINFLDELRKDASITWPSLVTSLWVAEELYWRWARDTPRAPGLHWKYQKWIDLHDGEHFQTWCEFLKAEVDKFPVEEVESIFVKVSQFEFEFFESCYNA,not soluble
12,MSDADSQKQIKLTSSDDKTFTVSRKVISQSKTITDIIQNLGIEESGSTSEDTIPLQKVTSTILEKIITWCEHHADDEPKKVDENKKTVDISEWDAEFMKVDQGTLFEIILAANYLDIRGLLDVTTQNVANMMKGKTPSQIRTLFNIENDFSEEEREAMKKENAWCED,not soluble
13,MSDAPTVVAYLGPAGTFTEEALYKFADAGVFGDGEIEQLPAKSPQEAVDAVRHGTAQFAVVAIENFVDGPVTPTFDALDQGSNVQIIAEEELDIAFSIMVRPGTSLADVKTLATHPVGYQQVKNWMATTIPDAMYLSASSNGAGAQMVAEGTADAAAAPSRAAELFGLERLVDDVADVRGARTRFVAVQAQAAVSEPTGHDRTSVIFSLPNVPGSLVRALNEFAIRGVDLTRIESRPTRKVFGTYRFHLDISGHIRDIPVAEALRALHLQAEELVFVGSWPSNRAEDSTPQTDQLAKLHKADEWVRAASEGRKLN,soluble
14,MSDASKRAAFDQYGHAGVDPSMGGGGAGFGGANFSDIFGDVFSDFFGGGGRGGGRGGAQRGSDLRYTLELNLEEAVRGTTVSIRVPTLVNCQPCDGSGAKKGSTPSTCPTCGGIGQVRMQQGFFSVQQTCPRCHGQGKIITDPCTSCHGEGRVEEYKTLSVKVPAGVDTGDRIRLSGEGEAGTHGGPTGDLYVVISVREHEIFQRDGKHLYCEVPISYTDAALGGELEVPTLDGRVKLKIPEGTQTGKQFRLRGKGVAPVRGGGAGDLLCRVAVETPVNLSRRQRELLEELRDSLEGDSSHSPKASGWFDGVKRFFGDLLEHHHHHH,not soluble
15,MSDDESIFVPDENSAQVSAETTVKCYRTDSASSQKVINNLEKFVLNQSLDKSYKKIASDGIASSKRTLESLLARNGGHQNLLNEEVNKLNNKNYTLDADGRVCLVKNSSNDTSRHQELILLQKDTHELRCLREYLMLALEAIMHNHRQMMVKHVQNVRERPRQVSQAAIDNAIVSSAFGLFIEAFYSFLFQEKANTRIIDEFAQMTLFVDQSIAREEIRSENRRKLKKTIEIETFLMRMMLEMEDIREANVKDLVSLWRSHQRSAKTQPTNNNAAGDSTN,not soluble
16,MSDKVQTMASAIYRELETMIKVHGEDGVKTLMPLVVNVLEALDLAYLERDEQTAELEMLKEDNEQLQTQYEREKALRKQTEQKYIEIEDTLIGQNKELDKKIESLESIMRMLELKAKNATDHASRLEEREVEQKLEFDRLHERYNTLLRTHVDHMERTKYLMGSEKFELMQNMPLPNMQLRNKMGMAASVDASSIRGVSDLISAHMTQSTTMDVNLANHITNEDWQDEFSSDIEPSPRDIPQSSADALTSPITTKEPTPKREAASPKQSEEEEADETTSVDPKENNDLLGADLTGNLVDPAEFASAVNDTFIGMGREVENLIKENSELLDMKNALNIVKNDLINQVDELNSENMILRDENLSRQMVSEKMQEQITKHEEEIKTLKQKLMEKENEQEEDDVPMAMRKRFTRSEMQRVLMDRNAYKEKLMELEESIKWTEMQRAKKMQQQQQNVNQKKSGGIWEFFSSLLGDSVTPPASSRGNRASSSRGKMTRSVEYIDPDMISERRAAERREQYKLVREHVKKEDGRIEAYGWSLPNVEAEVSSVPIPVCCRPLLDNEPSLKIWCATGVVLRGGRDERGQWIVGDPIYFAPASMKKTKTSNHRPELEDEIKRARNLDARESELDEWQSSSLVWVVSSNQGKSLIAVLDANNPNNIIETFPACDSHLLCIQAVSGVMEGEPEMNEEQSKKYLSGGGKIKDLPEGLDGTDLGACEWVELRKMEDSEDGVPTYCSNDMKPSPKRTRDFSISEVAPVDSSAPVKEDPLPPPANRPGGRAALPPHIRDAMSKYDGVSGQMSGALPTVWMGGQNQYIYIHSAVTAWKQCLRRIKMPDAVLSIVHYKSRIFAALANGTIAIFHRNKHGEWSDEGYHSLRVGSATSSVRSLCLVSTNIWATYKNCVVVLDAESLQIVKVFAAHPRKDSQVRNMQWVGAGVWLSIRLDSTLRLYHAHTYEHLQDVDIEPYVTKMLGTSKLDFSYMRTTALLVSNRRLWIGTGTGVIISVPFSGQLEKKIETKDSKRPAGPGGLVRVYGATSENATNDEKTNDDFIPYCNLAHAQLSFHGHKDSVKFFLGVPGASKNGEDESAEVTLRRMLIMSGGDGYIDFRIGEENEPELTGQSIRPRDMSHLIIWEVDAELPILSK,not soluble
